Results as given in patent US20030203372A1, “Analysis method” (priority 2000, published 2003).

Key:
[1] = test system: human breast and ovary tumors; assay: Custom gene array, breast and ovary tumors versus normal adjacent tissue; settings: for gene expression level on custom gene array, Breast nor H / gene expression level on custom gene array, Breast nor K / gene expression level on custom gene array, Ovary nor E / gene expression level on custom gene array, Ovary nor F / gene expression level on custom gene array, Ovary nor G: normal adjacent tissue; for gene expression level on custom gene array, Breast nor H / gene expression level on custom gene array, Breast tum H: patient H; for gene expression level on custom gene array, Breast nor K / gene expression level on custom gene array, Breast tum K: patient K; for gene expression level on custom gene array, Breast tum H / gene expression level on custom gene array, Breast tum K / gene expression level on custom gene array, Ovary tum E / gene expression level on custom gene array, Ovary tum F / gene expression level on custom gene array, Ovary tum G: tumor tissue; for gene expression level on custom gene array, Ovary nor E / gene expression level on custom gene array, Ovary tum E: patient E; for gene expression level on custom gene array, Ovary nor F / gene expression level on custom gene array, Ovary tum F: patient F; for gene expression level on custom gene array, Ovary nor G / gene expression level on custom gene array, Ovary tum G: patient G
Description: A study has been performed to examine the expression of these genes in a selection of breast and ovary tumors, comparing expression with normal adjacent tissue from the same patient. There is expected to be a large degree of variation between different patients, and the study here contains only 5 patients with a range of diagnoses.
Patients are designated as Letters:
E: person. Diagnosis: ovarian adenocarcinoma. Normal ovarian tissue derived from an age-matched separate individual.
: person. Diagnosis: poorly differentiated adenocarcinoma. Normal ovarian tissue derived from the same individual.
G: person. Diagnosis: moderately-differentiated adenocarcinoma. Normal ovarian tissue derived from the same individual.
H: person. Diagnosis: invasive ductal carcinoma. Normnal breast tissue derived from the same individual.
K: person. Diagnosis: invasive ductal carcinoma. Normal breast tissue derived from the same individual.
Data normalisation was done per-chip to correct for differences in labelling and hybridization efficiency. Per-gene normalisation was done such that the expression values of each gene are relative to the median value of that gene throughout the series of samples. By comparing the expression values under normal (nor) and tumor (turn) for a single patient, differences in expression between the normal and malignant tissue of that patient can be inferred.

[2] = test system: primary human cell cultures (11 cell types); assay: Custom gene array, 11 human cell types in normoxia or hypoxia for 6 hr and 18 hr; format: cell-based;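 as to mRNA expression level, #1 HY 18 hr: cell type #1 is adipocyte from subcutaneous adult adipose tissue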;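 as to mRNA expression level, #1 HY 6 hr: cell type #1 is adipocyte from subcutaneous adult adipose tissue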;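 as to mRNA expression level, #1 NO: cell type #1 is adipocyte from subcutaneous adult adipose tissue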;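 as to mRNA expression level, #2 HY 18 hr: cell type #2 is fetal cardiomyocyte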;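 as to mRNA expression level, #2 HY 6 hr: cell type #2 is fetal cardiomyocyte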;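 as to mRNA expression level, #2 NO: cell type #2 is fetal cardiomyocyte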;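 as to mRNA expression level, #3 HY 6 hr: cell type #3 is human umbilical vein endothelial cells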;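 as to mRNA expression level, #3 NO: cell type #3 is human umbilical vein endothelial cells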;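 as to mRNA expression level, #4 HY 18 hr: cell type #4 is adult dermal fibroblast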;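 as to mRNA expression level, #4 HY 6 hr: cell type #4 is adult dermal fibroblast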;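 as to mRNA expression level, #4 NO: cell type #4 is adult dermal fibroblast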;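 as to mRNA expression level, #5 HY 6 hr: cell type #5 is adult hepatocyte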;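 as to mRNA expression level, #5 NO: cell type #5 is adult hepatocyte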;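 as to mRNA expression level, #6 HY 6 hr: cell type #6 is blood-derived macrophage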;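 as to mRNA expression level, #6 NO: cell type #6 is blood-derived macrophage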
Protocol: Equivalent cultures of non-immortalized, non-transformed primary human cells of 10 distinct types, were cultured in either normoxia or were exposed to hypoxia for 6 hr and 18 hr, and gene expression changes were determined. […] Moreover, unlike the vast majority of information in the public domain relating to genes responsive to hypoxia, all of these cells were human and were cultured without any modifications following isolation from the human donors.
A non-primary cell type (#9) was used to represent neurons, since primary human neurons are difficult to source. Therefore a total of 11 cell types are compared. It should be noted that RNA from hepatocytes at the […] timepoint of hypoxia was not available for this work.
Each RNA sample was hybridised to duplicate or triplicate arrays, to ensure reproducible data, and was analysed using GeneSpring software. Data from replicate arrays were merged during analysis to generate mean values. Data normalisation was achieved per-array using the aforementioned list of control genes, such that differences in RNA labelling or hybridization due to experimental variation were corrected by referencing each gene to the mean value of the reference genes on the same array. Also, for each gene, expression values were obtained which represent the value in each experimental condition (e.g. macrophages 6 hr hypoxia) as compared to the median of value of that gene throughout the full range of experimental conditions (i.e. from all cell types). […] This is common in microarray data analysis.

B1: p1E19 (nucleic acid, listed as Homo Sapiens)
DNA: TTTTTTTTCCTAGTTTCATTAAAGATGGAGTTCATATTTGTTTCTCATATTAATTTTTAAGACAAAAAAAAGCAGAACTGTTTTCACCCATTAAGTTAAAAACTGGAATTTTACCTTTCCAAACTTATTTCCTACCTTGCCCCTTTTCATGTTAATACCATGAACTATTCAGTAATTCTCTTCAAGCTCCATAATTTCCTACTTTCTACTTTTGCTCATTATTTCCATTCCAAGGGAAAGTTCTGTGTGCGTGTCTATTTCTATGTTCAAATTACACCTGTAAGATCCAACTCACAGGGCCATTGCCCTCTAGGGGTCTCTCCTGGATCCACTTCAACAGGAGGTAATTTTATCTNCACCGGATACCATTTCCTCCTTGGACACTTACCTCTTTTANGGGGACTCCCGAGGGTTGAGGGGGNG
modifications: EST array clone; misc_feature 356, 397, 422: n = A,T,C or G
gene expression level on custom gene array, Breast nor H ([1]; Table 18): 2.38
gene expression level on custom gene array, Breast nor K ([1]; Table 18): 1.19
gene expression level on custom gene array, Breast tum H ([1]; Table 18): 2.49
gene expression level on custom gene array, Breast tum K ([1]; Table 18): 1.78
gene expression level on custom gene array, Ovary nor E ([1]; Table 18): 1.00
gene expression level on custom gene array, Ovary nor F ([1]; Table 18): 1.38
gene expression level on custom gene array, Ovary nor G ([1]; Table 18): 0.20
gene expression level on custom gene array, Ovary tum E ([1]; Table 18): 2.04
gene expression level on custom gene array, Ovary tum F ([1]; Table 18): 1.30
gene expression level on custom gene array, Ovary tum G ([1]; Table 18): 1.19
mRNA expression level, #1 HY 6 hr ([2]; cell type #1, hypoxia 6 hr): 0.65
mRNA expression level, #1 HY 18 hr ([2]; cell type #1, hypoxia 18 hr): 0.62
mRNA expression level, #1 NO ([2]; cell type #1, normoxia): 0.79
mRNA expression level, #2 HY 6 hr ([2]; cell type #2, hypoxia 6 hr): 2.37
mRNA expression level, #2 HY 18 hr ([2]; cell type #2, hypoxia 18 hr): 2.99
mRNA expression level, #2 NO ([2]; cell type #2, normoxia): 2.64
mRNA expression level, #3 HY 6 hr ([2]; cell type #3, hypoxia 6 hr): 1.61
mRNA expression level, #3 HY 18 hr ([2]; cell type #3, hypoxia 18 hr): 1.77
mRNA expression level, #3 NO ([2]; cell type #3, normoxia): 2.10
mRNA expression level, #4 HY 6 hr ([2]; cell type #4, hypoxia 6 hr): 0.40
mRNA expression level, #4 HY 18 hr ([2]; cell type #4, hypoxia 18 hr): 0.64
mRNA expression level, #4 NO ([2]; cell type #4, normoxia): 0.61
mRNA expression level, #5 HY 6 hr ([2]; cell type #5, hypoxia 6 hr): 0.89
mRNA expression level, #5 NO ([2]; cell type #5, normoxia): 0.42
mRNA expression level, #6 HY 6 hr ([2]; cell type #6, hypoxia 6 hr): 0.76
#6 HY 18 hr (mRNA expression level) ([2]; cell type #6, hypoxia 18 hr): 1.08
mRNA expression level, #6 NO ([2]; cell type #6, normoxia): 0.68
#7 HY 6 hr (mRNA expression level) ([2]; cell type #7, hypoxia 6 hr): 0.50
#7 HY 18 hr (mRNA expression level) ([2]; cell type #7, hypoxia 18 hr): 0.32
#7 NO (mRNA expression level) ([2]; cell type #7, normoxia): 0.41
#8 HY 6 hr (mRNA expression level) ([2]; cell type #8, hypoxia 6 hr): 0.90
#8 HY 18 hr (mRNA expression level) ([2]; cell type #8, hypoxia 18 hr): 0.47
#8 NO (mRNA expression level) ([2]; cell type #8, normoxia): 0.38
#9 HY 6 hr (mRNA expression level) ([2]; cell type #9, hypoxia 6 hr): 1.11
#9 HY 18 hr (mRNA expression level) ([2]; cell type #9, hypoxia 18 hr): 1.17
#9 NO (mRNA expression level) ([2]; cell type #9, normoxia): 1.30
#10 HY 6 hr (mRNA expression level) ([2]; cell type #10, hypoxia 6 hr): 1.52
#10 HY 18 hr (mRNA expression level) ([2]; cell type #10, hypoxia 18 hr): 1.39
#10 NO (mRNA expression level) ([2]; cell type #10, normoxia): 1.29
#11 HY 6 hr (mRNA expression level) ([2]; cell type #11, hypoxia 6 hr): 1.69
#11 HY 18 hr (mRNA expression level) ([2]; cell type #11, hypoxia 18 hr): 1.39
#11 NO (mRNA expression level) ([2]; cell type #11, normoxia): 1.14
HIGHEST FOLD CHANGE IN HYPOXIA (hr hypoxia + cell type) ([2]; hypoxia/normoxia induction ratio, 6 hr hepatocyte): 2.13 (6 hr hepatocyte) fold

B2: p2A23 (nucleic acid, listed as Homo Sapiens)
DNA: AGAAGAAGCTGGCCAAGGATATGGGAGCAACCACCATGGACCAGAAGTCTCTCTGGGCAGGTGTAGTGGTCTTGCTGCTTCTCCAGGGAGGATCTGCCTACAAACTGGTTTGCTACTTTACCAACTGGTCCCAGGACCGGCAGGAACCAGGAAAATTCACCCCTGAGAATATTGACCCCTTCCTATGCTCTCATCTCATCTATTCATTCGCCAGCATCGAAAACAACAAGGTTATCATCAAGGACAAGAGTGAAGTGATGCTCTACCAGACCATCAACAGTCTCAAAACCAAGAATCCCAAACTGAAAATTCTCTTGTCCATTGGAGGGTACCTGTTTGGTTCCAAAGGGTTCCACCCTATGGTGGATTCTTCTACATCACGCTTGGAATTCATTAACTCCATAATCCTGTTTCTGAGGAACCATAACTTTGATGGACTGGATGTAAGCTGGATCTACCCAGATCAGAAAGAAAACACTCATTTCACTGTGCTGATTCATGAGTTAGCAGAAGCCTTTCAGAAGGACTTCACAAAATCCACCAAGGAAAGGCTTCTCTTGACTGCGGGCGTATCTGCAGGGAGGCAAATGATTGATAACAGCTATCAAGTTGAGAAACTGGCAAAAGATCTGGATTTCATCAACCTCCTGTCCTTTGACTTCCATGGGTCTTGGGAAAAGCCCCTTATCACTGGCCACAACAGCCCTCTGAGCAAGGGGTGGCAGGACAGAGGGCCAAGCTCCTACTACAATGTGGAATATGCTGTGGGGTACTGGATACATAAGGGAATGCCATCAGAGAAGGTGGTCATGGGCATCCCCACATATGGGCACTCCTTCACACTGGCCTCTGCAGAAACCACCGTGGGGGCCCCTGCCTCTGGCCCTGGAGCTGCTGGACCCATCACAGAGTCTTCAGGCTTCCTGGCCTATTATGAGATCTGCCAGTTCCTGAAAGGAGCCAAGATCACGCGCCTCCAGGATCAGCAGGTTCCCTACGCAGTCAAGGGGAACCAGTGGGTGGGCTATGATGATGTGAAGAGTATGGAGACCAAGGTTCAGTTCTTAAAGAATTTAAACCTGGGAGGAGCCATGATCTGGTCTATTGACATGGATGACTTCACTGGCAAATCCTGCAACCAGGGCCCTTACCCTCTTGTCCAAGCAGTCAAGAGAAGCCTTGGCTCCTTGTGAAGGATTAACTTACAGAGAAGCAGGCAAGATGACCTTGCTGCCTGGGGCCTGCTCTCTCCCAGGAATTCTCATGTGGGATTCCCCTTGCCAGGCTGGCCTTTGGATCTCTCTTCCAAGCCTTTCCTGACTTCCTCTTAGATCATAGATTGGACCTGGTTTTGTTTTCCTGCAGCTGTTGACTTGTTGCCCTGAAGTACAATAAAAAAAATTCATTTTGCTCCAGTA
gene expression level on custom gene array, Breast nor H ([1]; Table 19): 1.36
gene expression level on custom gene array, Breast nor K ([1]; Table 19): 0.91
gene expression level on custom gene array, Breast tum H ([1]; Table 19): 2.22
gene expression level on custom gene array, Breast tum K ([1]; Table 19): 2.01
gene expression level on custom gene array, Ovary nor E ([1]; Table 19): 0.66
gene expression level on custom gene array, Ovary nor F ([1]; Table 19): 0.48
gene expression level on custom gene array, Ovary nor G ([1]; Table 19): 4.18
gene expression level on custom gene array, Ovary tum E ([1]; Table 19): 0.78
gene expression level on custom gene array, Ovary tum F ([1]; Table 19): 0.61
gene expression level on custom gene array, Ovary tum G ([1]; Table 19): 0.74
mRNA expression level ([2]; cell type #1, HY (hypoxia) 6 hr): 1.24
mRNA expression level ([2]; cell type #1, HY (hypoxia) 18 hr): 1.15
mRNA expression level ([2]; cell type #1, NO (normoxia)): 1.79
mRNA expression level ([2]; cell type #2, HY (hypoxia) 6 hr): 2.26
mRNA expression level ([2]; cell type #2, HY (hypoxia) 18 hr): 1.79
mRNA expression level ([2]; cell type #2, NO (normoxia)): 1.81
mRNA expression level ([2]; cell type #3, HY (hypoxia) 6 hr): 1.28
mRNA expression level ([2]; cell type #3, HY (hypoxia) 18 hr): 0.95
mRNA expression level ([2]; cell type #3, NO (normoxia)): 1.11
mRNA expression level ([2]; cell type #4, HY (hypoxia) 6 hr): 0.87
mRNA expression level ([2]; cell type #4, HY (hypoxia) 18 hr): 0.77
mRNA expression level ([2]; cell type #4, NO (normoxia)): 1.26
mRNA expression level ([2]; cell type #5, HY (hypoxia) 6 hr): 1.43
mRNA expression level ([2]; cell type #5, NO (normoxia)): 0.77
mRNA expression level ([2]; cell type #6, HY (hypoxia) 6 hr): 0.91
mRNA expression level ([2]; cell type #6, NO (normoxia)): 0.76
